Data as given in patent US11207423B2, “Nanocarriers having surface conjugated peptides and uses thereof for sustained local release of drugs” (Northwestern University, priority 2016, dated 2021).
Ends that are not written are not given here.

Key:
[1] = Rabbit eye clearance of Cy7-tagged nanoparticles by in vivo imaging (IVIS)
Protocol: FIG. 8. Slowed rabbit eye clearance in vivo with Cy7-tagged 3R-peptide CDEX conjugate. 20 μl of anchor peptide amino-PEG8-RRYRL-amide (SEQ ID NO:5) conjugate to CDEX (2.5 mg/ml) along with conjugated 0.05 moles/particle Cy7-amine was injected into rabbit eyes on day one. Left eye 14 peptides/particle, right eye 21 peptides/particle.
FIG. 10. In vivo charge and zeta potential-dependent loss of NP from rabbit vitreous expressed as a percentage of the first measured photon flux at day 10 post-injection (taken as day 0). Volume of injection: 25 μl; nanocarrier concentration: 3 mg/ml. [Control: CDEX70-0: (n=2). CDEX70-2R; 64 peptides per particle by BCA (n=3) and CDEX70-3R; 61 peptides per particle by BCA (n=3)]. Half-lives: CDEX-0: 4 days; CDEX-2R: 7 days; CDEX70-3R: 13 days. 2R and 3R peptides are respectively (SEQ ID NO:4) and (SEQ ID NO:5) linked as carbamates of 3pyrrolidineCO-amido-PEG8-CO-peptide to Cy7-CDEX70. Cy7 amine is carbamate-linked at <1 mole/mole NP.
Thus BCA protein analysis of increasing peptide, with time in filtrate after 30 kDa filtration of a loaded carrier sample in buffer estimates the half-life for peptide release in buffer. For confirmation in actual vitreous humor (e.g., rabbit) at time points post injection LC-MS estimation of the peptide in vitreous extract follows precipitation of excess HA after adding 3 volumes of ethanol. […] Free intravitreal peptide is assayed after centrifugation via 30 kDa MWCO spin filter.
Retention of the NP in vitreous was tested in vivo in rabbits. 25 μl of CDEX70-2R-Cy7 (SEQ ID NO:4) 3 mg/ml or CDEX70-3R-Cy7 (SEQ ID NO:5) 3 mg/ml was administered by intravitreal injection and imaged via an IVIS scan after 4 weeks and nine weeks. Left: 4-week experiment. (See FIG. 9). The in vivo diffusion dependent loss of NP from rabbit vitreous expressed as percentage of the first measurement at day 10 post-injection (taken as day 0) is provided in FIG. 10. The determined half-lives of the NP is as follows: CDEX-0-Cy7: 4 days; CDEX-2R-Cy7: 7 days; CDEX70-3R-Cy7: 13 days. In vivo diffusion-dependent loss of NP from rabbit vitreous expressed as Flux of the first measurement at day 10 post-injection (taken as day 0) of CDEX70-2R-Cy7 at 4 different concentrations [Control: 0 mg/ml (n=6). 3 mg/ml (n=3).

[2] = Zeta potential measurement (electrophoretic light scattering); format: physicochemical
Protocol: (§1) Sample characteristics (particle size, polydispersity and zeta-potential) were measured by a dynamic light scattering method using Malvern Zeta Sizer Nano-S90 instrument according to the manufacturer recommendations. Briefly, hydrodynamic diameter (dh) and polydispersity index (PDI) of nanogel/microgels were obtained for 1 mg/mL aqueous solutions at 25° C. in triplicates after sonication for 30 min and centrifugation at 12,000 rpm. Zeta-potential of the samples was measured for the same solutions in standard 1 cm-cuvettesusing zeta-potential option in the company's software. Average of five measurements±SD was registered.
(§2) Peptide concentration was estimated by BCA (Pierce) protein assay against a standard curve of free peptide. Zeta potential and size was measured on non-rhodamine product using electrophoretic light scattering and dynamic light scattering, respectively (Zetasizer, Malvern). The Z averaged particle size is 15 nm and the full width at half maximum of the distribution peak is 24 nm. Zeta potentials for 1-Arg, 2-Arg, 3-Arg and 4-Arg peptide conjugates were 0.07 mV, 2.2 mV, 4.6 mV and 9.2 mV respectively (Table 2).

[3] = Particle size measurement (dynamic light scattering); format: physicochemical
Protocol: as §1, §2

[4] = human vitreous; cited from earlier work
[5] = system: laser-induced choroidal neovascularization (CNV); conditions: single intravitreal injection of 1-ul 4 mg/ml 2 days before laser wounding; angiogenesis markers 14 days later
Protocol: FIG. 12B. […] A single injection of 1-ul 4 mg/ml peptide (SEQ ID NO:6) or control is injected into mouse vitreous 2 days before laser wounding of the retina. Angiogenesis markers are detected by antibody stain, 14 days later.

With “CDEX-3R-Cy7: Cy7-CDEX70 carbamate-linked to 3-pyrrolidine-CONH-PEG(8)-CO-Arg-Arg-Tyr-Arg-Leu-NH2 (SEQ ID NO:5) (RRYRL-NH2; not fully specified (N-terminus); printed as 3-pyrrolidine-CONH-PEG(8)-CO-Arg-Arg-Tyr-Arg-Leu-NH2; also: carbamate-linked to Cy7-CDEX70 nanocarrier)” the “half-life of NP in rabbit vitreous” value ([1]; intravitreal 25 μl, 3 mg/ml, photon flux relative to day 10 post-injection (taken as day 0)) was 13 days, the “retention in eye compared with 2R peptide conjugate at similar peptide loading” value ([1]; rabbit, IVIS scans after 4 and 9 weeks) was “retained longer in the eye” and the Zeta potential [2] was 6.34 ± 1.28 mV. It also gave a Particle size [3] of 81.69 ± 7.44 nm.
With “CDEX-AP3: CDI-activated CDEX nanogel carbamate-linked to AP3, amino-PEG(12)-CO-Arg-Arg-Ser-Arg-amide (SEQ ID NO:19) (RRSR-NH2; not fully specified (N-terminus); printed as amino-PEG(12)-CO-Arg-Arg-Ser-Arg-amide; also: carbamate-linked to CDI-activated CDEX nanogel)” the Zeta potential [2] was 4.58 mV and the Particle size [3] was 124 ± 1.4 nm.
In the case of “Cy7-tagged 3R-peptide CDEX conjugate: Anchor peptide amino-PEG8-RRYRL-amide (SEQ ID NO:5) conjugated to CDEX with 0.05 moles/particle Cy7-amine; 14 or 21 peptides/particle (RRYRL-NH2; not fully specified (N-terminus); printed as amino-PEG8-RRYRL-amide; also: Cy7-amine on CDEX particle)”, the fluorescence lost ([1]; rabbit left eye, 14 peptides/particle, 20 μl of 2.5 mg/ml) is reported as > 90% and the “residence in eye” value ([1]; rabbit right eye, 21 peptides/particle, 20 μl of 2.5 mg/ml) is reported as “longer residence of conjugate in eye”.
In the case of “Ranibizumab: a VEGF inhibitor for treatment of advanced AMD”, the half-life in vitreous [4] is given as “approximately 9 days”.
For “adipic-Sar-Tyr-Asn-Leu-Tyr-Arg-Val-Arg-Ser-NH2 [SEQ ID NO:6]”, the retinal protective activity [5] was “reduction of laser-induced choroidal neovascularization (CNV)”.
